{"source": "patent US20240150810", "proteins": {"B1": {"name": "recombinant USP22 (protein)", "chain": "MVSRPEPEGEAMDAELAVAPPGCSHLGSFKVDNWKQNLRAIYQCFVWSGTAEARKRKAKSCICHVCGVHLNRLHSCLYCVFFGCFTKKHIHEHAKAKRHNLAIDLMYGGIYCFLCQDYIYDKDMEIIAKEEQRKAWKMQGVGEKFSTWEPTKRELELLKHNPKRRKITSNCTIGLRGLINLGNTCFMNCIVQALTHTPLLRDFFLSDRHRCEMQSPSSCLVCEMSSLFQEFYSGHRSPHIPYKLLHLVWTHARHLAGYEQQDAHEFLIAALDVLHRHCKGDDNGKKANNPNHCNCIIDQIFTGGLQSDVTCQVCHGVSTTIDPFWDISLDLPGSSTPFWPLSPGSEGNVVNGESHVSGTTTLTDCLRRFTRPEHLGSSAKIKCSGCHSYQESTKQLTMKKLPIVACFHLKRFEHSAKLRRKITTYVSFPLELDMTPFMASSKESRMNGQYQQPTDSLNNDNKYSLFAVVNHQGTLESGHYTSFIRQHKDQWFKCDDAIITKASIKDVLDSEGYLLFYHKQFLEYE"}}, "target": "AMC-Ubiquitin, P62979", "data": [{"protein": "B1", "values": [{"measurement": "fluorescence signal generated by cleavage of the fluorogenic substrate AMC-Ubiquitin (in vitro deubiquitination assay, time course)", "result": "fluorescence resulting from the liberation of AMC increased over time in a USP22-dependent manner"}]}]}
